This is an account of results in patent US20250277767A1.

Broadly, the EC50 (read off the curve) is the concentration giving half of the maximal effect.

Assay [1] addresses peptide #49+50 (combined sequences of peptides #49 and #50) (Enteropathogenic Escherichia coli (EPEC)). Nature of the assay: ELISA, plate coated with peptide #49+50, serially diluted mAb.
In assay [2] the target is peptide #50 (cyclic EspB peptide, positions 197-211) (Enteropathogenic Escherichia coli (EPEC)). Nature of the assay: ELISA, plate coated with peptide #50, serially diluted mAb. Background: In an ELISA, binding on a coated surface is turned into a signal by an enzyme label.
The target in assay [3] is peptide #49 (cyclic EspB peptide, positions 193-207) (Enteropathogenic Escherichia coli (EPEC)). Nature of the assay: ELISA, plate coated with peptide #49, serially diluted mAb.

B1: mAb-EspB-B7 (antibody, V domains shown)
VH: EVQLLESGGGLVQPGGSLRLSCAASGFTFSHYAMNWVRQAPGKGLEWVSAINSNGDSTYYPDTVKDRFTISRDNSKNTLYLQMNSLRAEDTAVYYCARDRRAGYFDYWGQGTLVTVSS
VL: DIVLTQPPSASGTPGQRVTISCSGSRDNIGKNYVSWYQQLPGTAPKLLIYRNNQRPSGVPDRFSGSKSGTSASLAISGLRSEDEADYYCSAWDTSLNAYVFGPGTQLTVL
B1: the EC50 (read off the curve) in assay [1] was determined as 0.3 µg/mL; in assay [2], 0.5 µg/mL; in assay [3] it was 0.5 µg/mL.

B2: peptide #49+50 (combined sequences of peptides #49 and #50) (peptide)
peptide: CTSAQKASQVAEEAADAAQEC
modifications: not checked
In turn, B2 had an IC50 (read off the curve) with mAb-EspB-B7 of 2 µg/mL.
